Data from patent publication US20140206609A1 (Sanofi, published 2014).
*1 amine or outer side, *2 acyl side, *3 side chain or, on linkers, in order; H or OH if unused. Where no end group is shown, it is not given here. Side-chain parts run from the residue outwards. [ ]: non-standard residue; d: D form. The star is where a group is joined. γGlu = O=C(O)[C@H](CCC(=O)[*:2])N[*:1]; Stearoyl = CCCCCCCCCCCCCCCCCC(=O)*; Palmitoyl = CCCCCCCCCCCCCCCC(=O)*; Aib = CC(C)(N)C(=O)O

Tests used:
Assay in all cases: cell-based or functional assay
[1] = target: human GLP-1 receptor (human, UniProt P43220 24-463)
[2] = target: human glucagon receptor (human, UniProt P47871 26-477)
Sequence of human glucagon receptor (P47871 26-477): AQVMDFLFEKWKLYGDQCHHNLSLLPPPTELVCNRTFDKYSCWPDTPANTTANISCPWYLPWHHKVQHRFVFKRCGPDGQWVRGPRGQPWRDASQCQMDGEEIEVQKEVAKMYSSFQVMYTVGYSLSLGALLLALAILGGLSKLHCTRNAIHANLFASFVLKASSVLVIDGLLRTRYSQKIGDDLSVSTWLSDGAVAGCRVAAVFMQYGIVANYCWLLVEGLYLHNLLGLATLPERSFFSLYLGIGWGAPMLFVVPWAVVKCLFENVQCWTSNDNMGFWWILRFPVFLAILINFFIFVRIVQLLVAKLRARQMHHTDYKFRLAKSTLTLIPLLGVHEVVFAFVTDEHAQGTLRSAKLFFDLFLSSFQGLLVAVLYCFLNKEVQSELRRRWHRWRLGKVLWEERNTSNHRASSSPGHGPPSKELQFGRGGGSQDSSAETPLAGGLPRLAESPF

[3] = target: T1, human GIP receptor (human, UniProt P48546 22-466)
T1 sequence (looked up): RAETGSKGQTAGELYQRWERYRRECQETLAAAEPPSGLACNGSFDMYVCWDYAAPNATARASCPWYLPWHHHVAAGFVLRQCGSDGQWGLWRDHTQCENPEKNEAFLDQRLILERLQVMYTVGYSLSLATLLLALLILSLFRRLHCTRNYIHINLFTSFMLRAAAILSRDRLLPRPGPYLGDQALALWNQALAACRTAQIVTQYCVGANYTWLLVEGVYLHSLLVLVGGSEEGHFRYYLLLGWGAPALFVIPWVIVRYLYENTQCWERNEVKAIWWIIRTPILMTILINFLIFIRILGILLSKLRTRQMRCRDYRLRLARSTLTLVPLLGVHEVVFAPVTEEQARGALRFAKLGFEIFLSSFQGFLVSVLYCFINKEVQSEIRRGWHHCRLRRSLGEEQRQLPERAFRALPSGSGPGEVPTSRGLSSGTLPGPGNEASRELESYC

B1: SEQ ID NO: 12 (peptide)
peptide: Y[Aib]EGTFTSDLSIQK([γGlu-Palmitoyl])DKRAAQDFIEWLKNGGPSSGAPPPS-NH2
modifications: N-terminus assumed
SMILES: CCCCCCCCCCCCCCCC(=O)N[C@@H](CCC(=O)NCCCC[C@H](NC(=O)[C@H](CCC(N)=O)NC(=O)[C@@H](NC(=O)[C@H](CO)NC(=O)[C@H](CC(C)C)NC(=O)[C@H](CC(=O)O)NC(=O)[C@H](CO)NC(=O)[C@@H](NC(=O)[C@H](Cc1ccccc1)NC(=O)[C@@H](NC(=O)CNC(=O)[C@H](CCC(=O)O)NC(=O)C(C)(C)NC(=O)[C@@H](N)Cc1ccc(O)cc1)[C@@H](C)O)[C@@H](C)O)[C@@H](C)CC)C(=O)N[C@@H](CC(=O)O)C(=O)N[C@@H](CCCCN)C(=O)N[C@@H](CCCNC(=N)N)C(=O)N[C@@H](C)C(=O)N[C@@H](C)C(=O)N[C@@H](CCC(N)=O)C(=O)N[C@@H](CC(=O)O)C(=O)N[C@@H](Cc1ccccc1)C(=O)N[C@H](C(=O)N[C@@H](CCC(=O)O)C(=O)N[C@@H](Cc1c[nH]c2ccccc12)C(=O)N[C@@H](CC(C)C)C(=O)N[C@@H](CCCCN)C(=O)N[C@@H](CC(N)=O)C(=O)NCC(=O)NCC(=O)N1CCC[C@H]1C(=O)N[C@@H](CO)C(=O)N[C@@H](CO)C(=O)NCC(=O)N[C@@H](C)C(=O)N1CCC[C@H]1C(=O)N1CCC[C@H]1C(=O)N1CCC[C@H]1C(=O)N[C@@H](CO)C(N)=O)[C@@H](C)CC)C(=O)O
- EC50 hGLP-1 R [pM] [1]: 12.7 pM
- EC50 hGLUC R [pM] [2]: 1890 pM
- EC50 hGIP R [pM] [3]: 8.9 pM

B2: SEQ ID NO: 11 (peptide)
peptide: Y[Aib]EGTFTSDLSIQK([γGlu-Palmitoyl])DKRAA[Aib]DFIEWLKAGGPSSGAPPPS-NH2
modifications: N-terminus assumed
SMILES: CCCCCCCCCCCCCCCC(=O)N[C@@H](CCC(=O)NCCCC[C@H](NC(=O)[C@H](CCC(N)=O)NC(=O)[C@@H](NC(=O)[C@H](CO)NC(=O)[C@H](CC(C)C)NC(=O)[C@H](CC(=O)O)NC(=O)[C@H](CO)NC(=O)[C@@H](NC(=O)[C@H](Cc1ccccc1)NC(=O)[C@@H](NC(=O)CNC(=O)[C@H](CCC(=O)O)NC(=O)C(C)(C)NC(=O)[C@@H](N)Cc1ccc(O)cc1)[C@@H](C)O)[C@@H](C)O)[C@@H](C)CC)C(=O)N[C@@H](CC(=O)O)C(=O)N[C@@H](CCCCN)C(=O)N[C@@H](CCCNC(=N)N)C(=O)N[C@@H](C)C(=O)N[C@@H](C)C(=O)NC(C)(C)C(=O)N[C@@H](CC(=O)O)C(=O)N[C@@H](Cc1ccccc1)C(=O)N[C@H](C(=O)N[C@@H](CCC(=O)O)C(=O)N[C@@H](Cc1c[nH]c2ccccc12)C(=O)N[C@@H](CC(C)C)C(=O)N[C@@H](CCCCN)C(=O)N[C@@H](C)C(=O)NCC(=O)NCC(=O)N1CCC[C@H]1C(=O)N[C@@H](CO)C(=O)N[C@@H](CO)C(=O)NCC(=O)N[C@@H](C)C(=O)N1CCC[C@H]1C(=O)N1CCC[C@H]1C(=O)N1CCC[C@H]1C(=O)N[C@@H](CO)C(N)=O)[C@@H](C)CC)C(=O)O
- EC50 hGLP-1 R [pM] [1]: 11.5 pM
- EC50 hGLUC R [pM] [2]: 7220 pM
- EC50 hGIP R [pM] [3]: 3.2 pM

B3: SEQ ID NO: 14 (peptide)
peptide: Y[Aib]EGTFTSDLSIQK([γGlu-Stearoyl])EKRAAQEFIEWLKAGGPSSGAPPPS-NH2
modifications: N-terminus assumed
SMILES: CCCCCCCCCCCCCCCCCC(=O)N[C@@H](CCC(=O)NCCCC[C@H](NC(=O)[C@H](CCC(N)=O)NC(=O)[C@@H](NC(=O)[C@H](CO)NC(=O)[C@H](CC(C)C)NC(=O)[C@H](CC(=O)O)NC(=O)[C@H](CO)NC(=O)[C@@H](NC(=O)[C@H](Cc1ccccc1)NC(=O)[C@@H](NC(=O)CNC(=O)[C@H](CCC(=O)O)NC(=O)C(C)(C)NC(=O)[C@@H](N)Cc1ccc(O)cc1)[C@@H](C)O)[C@@H](C)O)[C@@H](C)CC)C(=O)N[C@@H](CCC(=O)O)C(=O)N[C@@H](CCCCN)C(=O)N[C@@H](CCCNC(=N)N)C(=O)N[C@@H](C)C(=O)N[C@@H](C)C(=O)N[C@@H](CCC(N)=O)C(=O)N[C@@H](CCC(=O)O)C(=O)N[C@@H](Cc1ccccc1)C(=O)N[C@H](C(=O)N[C@@H](CCC(=O)O)C(=O)N[C@@H](Cc1c[nH]c2ccccc12)C(=O)N[C@@H](CC(C)C)C(=O)N[C@@H](CCCCN)C(=O)N[C@@H](C)C(=O)NCC(=O)NCC(=O)N1CCC[C@H]1C(=O)N[C@@H](CO)C(=O)N[C@@H](CO)C(=O)NCC(=O)N[C@@H](C)C(=O)N1CCC[C@H]1C(=O)N1CCC[C@H]1C(=O)N1CCC[C@H]1C(=O)N[C@@H](CO)C(N)=O)[C@@H](C)CC)C(=O)O
- EC50 hGLP-1 R [pM] [1]: 4.3 pM
- EC50 hGLUC R [pM] [2]: 3760 pM
- EC50 hGIP R [pM] [3]: 4.4 pM

B4: SEQ ID NO: 10 (peptide)
peptide: Y[Aib]EGTFTSDLSIQK([γGlu-Palmitoyl])ESRAAQDFIEWLKAGGPSSGAPPPS-NH2
modifications: N-terminus assumed
SMILES: CCCCCCCCCCCCCCCC(=O)N[C@@H](CCC(=O)NCCCC[C@H](NC(=O)[C@H](CCC(N)=O)NC(=O)[C@@H](NC(=O)[C@H](CO)NC(=O)[C@H](CC(C)C)NC(=O)[C@H](CC(=O)O)NC(=O)[C@H](CO)NC(=O)[C@@H](NC(=O)[C@H](Cc1ccccc1)NC(=O)[C@@H](NC(=O)CNC(=O)[C@H](CCC(=O)O)NC(=O)C(C)(C)NC(=O)[C@@H](N)Cc1ccc(O)cc1)[C@@H](C)O)[C@@H](C)O)[C@@H](C)CC)C(=O)N[C@@H](CCC(=O)O)C(=O)N[C@@H](CO)C(=O)N[C@@H](CCCNC(=N)N)C(=O)N[C@@H](C)C(=O)N[C@@H](C)C(=O)N[C@@H](CCC(N)=O)C(=O)N[C@@H](CC(=O)O)C(=O)N[C@@H](Cc1ccccc1)C(=O)N[C@H](C(=O)N[C@@H](CCC(=O)O)C(=O)N[C@@H](Cc1c[nH]c2ccccc12)C(=O)N[C@@H](CC(C)C)C(=O)N[C@@H](CCCCN)C(=O)N[C@@H](C)C(=O)NCC(=O)NCC(=O)N1CCC[C@H]1C(=O)N[C@@H](CO)C(=O)N[C@@H](CO)C(=O)NCC(=O)N[C@@H](C)C(=O)N1CCC[C@H]1C(=O)N1CCC[C@H]1C(=O)N1CCC[C@H]1C(=O)N[C@@H](CO)C(N)=O)[C@@H](C)CC)C(=O)O
- EC50 hGLP-1 R [pM] [1]: 13.2 pM
- EC50 hGLUC R [pM] [2]: 40000 pM
- EC50 hGIP R [pM] [3]: 15.1 pM

B5: SEQ ID NO: 13 (peptide)
peptide: Y[Aib]QGTFTSDLSIQK([γGlu-Palmitoyl])DSRAAQDFIEWLKNGGPSSGAPPPS-NH2
modifications: N-terminus assumed
SMILES: CCCCCCCCCCCCCCCC(=O)N[C@@H](CCC(=O)NCCCC[C@H](NC(=O)[C@H](CCC(N)=O)NC(=O)[C@@H](NC(=O)[C@H](CO)NC(=O)[C@H](CC(C)C)NC(=O)[C@H](CC(=O)O)NC(=O)[C@H](CO)NC(=O)[C@@H](NC(=O)[C@H](Cc1ccccc1)NC(=O)[C@@H](NC(=O)CNC(=O)[C@H](CCC(N)=O)NC(=O)C(C)(C)NC(=O)[C@@H](N)Cc1ccc(O)cc1)[C@@H](C)O)[C@@H](C)O)[C@@H](C)CC)C(=O)N[C@@H](CC(=O)O)C(=O)N[C@@H](CO)C(=O)N[C@@H](CCCNC(=N)N)C(=O)N[C@@H](C)C(=O)N[C@@H](C)C(=O)N[C@@H](CCC(N)=O)C(=O)N[C@@H](CC(=O)O)C(=O)N[C@@H](Cc1ccccc1)C(=O)N[C@H](C(=O)N[C@@H](CCC(=O)O)C(=O)N[C@@H](Cc1c[nH]c2ccccc12)C(=O)N[C@@H](CC(C)C)C(=O)N[C@@H](CCCCN)C(=O)N[C@@H](CC(N)=O)C(=O)NCC(=O)NCC(=O)N1CCC[C@H]1C(=O)N[C@@H](CO)C(=O)N[C@@H](CO)C(=O)NCC(=O)N[C@@H](C)C(=O)N1CCC[C@H]1C(=O)N1CCC[C@H]1C(=O)N1CCC[C@H]1C(=O)N[C@@H](CO)C(N)=O)[C@@H](C)CC)C(=O)O
- EC50 hGLP-1 R [pM] [1]: 7.3 pM
- EC50 hGLUC R [pM] [2]: 31.3 pM
- EC50 hGIP R [pM] [3]: 71 pM

B6: SEQ ID NO: 39 (peptide)
peptide: Y[Aib]EGTFTSDLSIQK([γGlu-Palmitoyl])ESRAAQEFIEWLKAGGPSSGAPPPS-NH2
modifications: N-terminus assumed
SMILES: CCCCCCCCCCCCCCCC(=O)N[C@@H](CCC(=O)NCCCC[C@H](NC(=O)[C@H](CCC(N)=O)NC(=O)[C@@H](NC(=O)[C@H](CO)NC(=O)[C@H](CC(C)C)NC(=O)[C@H](CC(=O)O)NC(=O)[C@H](CO)NC(=O)[C@@H](NC(=O)[C@H](Cc1ccccc1)NC(=O)[C@@H](NC(=O)CNC(=O)[C@H](CCC(=O)O)NC(=O)C(C)(C)NC(=O)[C@@H](N)Cc1ccc(O)cc1)[C@@H](C)O)[C@@H](C)O)[C@@H](C)CC)C(=O)N[C@@H](CCC(=O)O)C(=O)N[C@@H](CO)C(=O)N[C@@H](CCCNC(=N)N)C(=O)N[C@@H](C)C(=O)N[C@@H](C)C(=O)N[C@@H](CCC(N)=O)C(=O)N[C@@H](CCC(=O)O)C(=O)N[C@@H](Cc1ccccc1)C(=O)N[C@H](C(=O)N[C@@H](CCC(=O)O)C(=O)N[C@@H](Cc1c[nH]c2ccccc12)C(=O)N[C@@H](CC(C)C)C(=O)N[C@@H](CCCCN)C(=O)N[C@@H](C)C(=O)NCC(=O)NCC(=O)N1CCC[C@H]1C(=O)N[C@@H](CO)C(=O)N[C@@H](CO)C(=O)NCC(=O)N[C@@H](C)C(=O)N1CCC[C@H]1C(=O)N1CCC[C@H]1C(=O)N1CCC[C@H]1C(=O)N[C@@H](CO)C(N)=O)[C@@H](C)CC)C(=O)O
- EC50 hGLP-1 R [pM] [1]: 4.3 pM
- EC50 hGLUC R [pM] [2]: 19300 pM
- EC50 hGIP R [pM] [3]: 8.5 pM
